These results are taken from patent publication US20140271457A1 (AbbVie / Abbott, published 2014).

Positions count from the first letter of the chain named.

This experiment concerns the target Recombinant Human IL-13 (human, UniProt P35225 35-146, limits assumed). Nature of the experiment: Biacore SPR. How it is done:
The BIACORE assay (GE, Healthcare Piscataway, N.J.) determined the affinity of antibodies or DVD-Ig with kinetic measurements of on-rate and off-rate constants. Binding of antibodies or DVD-Ig proteins to a target antigen (for example, a purified recombinant target antigen) was determined by surface plasmon resonance-based measurements with a Biacore T200 using running HBS-EP+buffer from GE Healthcare at 25° C. All chemicals were obtained from GE Healthcare or otherwise from a different source as described in the text. For example, approximately 5000 RU of goat anti-mouse IgG, (Fcγ), fragment specific polyclonal antibody (Pierce Biotechnology Inc, Rockford, Ill.) diluted in 10 mM sodium acetate (pH 4.5) was directly immobilized across a CM5 research grade biosensor chip using a standard amine coupling kit according to manufacturer's instructions. Unreacted moieties on the biosensor surface were blocked with ethanolamine. Modified carboxymethyl dextran surface in flowcell 1 was used as a reference surface. Rate constants were derived by making kinetic binding measurements at different antigen concentrations ranging from 0.8-100 nM. Binding was recorded as a function of time and kinetic rate constants were calculated. In this assay, association rate was evaluated for 5 min and dissociation was monitored for 10 min. For kinetic screening analysis, rate equations derived from the 1:1 binding model were fitted simultaneously to association and dissociation phases of all injections (using global fit analysis with Rmax fit locally to account for capture variations) with the use of Biaevaluation software. Purified antibodies or DVD-Ig proteins were diluted in HEPES-buffered saline for capture across goat anti-mouse IgG specific reaction surfaces. Antibodies or DVD-Ig proteins to be captured as a ligand were injected over reaction matrices at a flow rate of 5 μl/minute. The association and dissociation rate constants, kₒₙ (M⁻¹ s⁻¹) and koff (s⁻¹) were determined under a continuous flow rate of 50 μl/minute. Rate constants were derived by making kinetic binding measurements at different antigen concentrations ranging from 0.8-100 nM. Binding was recorded as a function of time and kinetic rate constants were calculated. In this assay, association rate was evaluated for 5 min and dissociation was monitored for 10 min.

Chain of Recombinant Human IL-13 (P35225 35-146 limits assumed): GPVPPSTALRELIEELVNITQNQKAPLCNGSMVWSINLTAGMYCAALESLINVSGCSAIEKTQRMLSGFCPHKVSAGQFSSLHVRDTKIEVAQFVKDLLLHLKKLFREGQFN

B1: AB397 (antibody, V domains shown)
VH: EVTLRESGPGLVKPTQTLTLTCTLYGFSLSTSDMGVDWIRQPPGKGLEWLAHIWWDDVKRYNPALKSRLTISKDTSKNQVVLKLTSVDPVDTATYYCARTVSSGYIYYAMDYWGQGTLVTVSS
VL: DIQMTQSPSSLSASVGDRVTISCRASQDIRNYLNWYQQKPGKAPKLLIFYTSKLHSGVPSRFSGSGSGTDYTLTISSLQPEDIATYYCQQGLTPPLTFGGGTKVEIKR
notes: parent antibody
With B1, the Kd was determined as 0.13 nM, the koff came to 0.00012 s⁻¹ and the kon turned out to be 920000 M⁻¹ s⁻¹.

B2: DVD3173 (bispecific antibody, IgG1)
VH: EVQLVQSGAEVKKPGASVKVSCKASGYTFNNYGIIWVRQAPGQGLEWMGWINTYTGKPTYAQKFQGRVTMTTDTSTSTAYMELSSLRSEDTAVYYCARKLFNTVAVTDNAMDYWGQGTTVTVSSGGGGSGGGGSEVQLVQSGAEVKKPGASVKVSCKASGYTFTSYWMHWVRQAPGQGLEWIGNINPKGGSNIYNEKFQGRVTMTRDTSISTAYMELSRLRSDDTAVYYCARLDYFGDSFDLWGQGTTVTVSS
VL: DIQMTQSPSSLSASVGDRVTITCRASQDIENYLNWYQQKPGKAPKLLIYYTSRLQSGVPSRFSGSGSGTDFTLTISSLQPEDFATYFCQQGNTQPPTFGQGTKLEIKRGGSGGGGSGDIQMTQSPSSLSASVGDRVTITCRASQGIRNYLNWYQQKPGKAPKLLIYYASNLEVGVPSRFSGSGSGTDYTLTISSLQPEDFATYYCQQDNRFPYTFGGGTKVEIKR
notes: DVD-Ig; wt hIgG1 + kappa constants
Take B2: the Kd stood at 0.37 nM, the koff stood at 8.8e-05 s⁻¹ and the kon was 240000 M⁻¹ s⁻¹.

B3: AB399 (antibody, V domains shown)
VH: EVQLVQSGAEVKKPGASVKVSCKASGYTFTSYWMHWVRQAPGQGLEWIGNINPKGGSNIYNEKFQGRVTMTRDTSISTAYMELSRLRSDDTAVYYCARLDYFGDSFDLWGQGTTVTVSS
VL: DIQMTQSPSSLSASVGDRVTITCRASQGIRNYLNWYQQKPGKAPKLLIYYASNLEVGVPSRFSGSGSGTDYTLTISSLQPEDFATYYCQQDNRFPYTFGGGTKVEIKR
notes: parent antibody
Turning to B3, the Kd came to 0.019 nM, the koff worked out at 6.4e-05 s⁻¹ and the on-rate (kon) is 3.4e+06 M⁻¹ s⁻¹.

B4: DVD2683 (bispecific antibody, IgG1)
VH: EVQLVESGGGLVQPGGSLRLSCAASGFTFSNYGVTWVRQAPGKGLEWVSMIWADGSTHYASSVKGRFTISRDNSKNTLYLQMNSLRAEDTAVYYCAREWQHGPVAYWGQGTLVTVSSGGGGSGGGGSEVTLRESGPGLVKPTQTLTLTCTLYGFSLSTSDMGVDWIRQPPGKGLEWLAHIWWDDVKRYNPALKSRLTISKDTSKNQVVLKLTSVDPVDTATYYCARTVSSGYIYYAMDYWGQGTLVTVSS
VL: DIQMTQSPSSLSASVGDRVTITCRASQLVSSAVAWYQQKPGKAPKLLIYWASARHTGVPSRFSGSGSGTDFTLTISSLQPEDFATYYCQQHYKTPFTFGQGTKLEIKRGGSGGGGSGDIQMTQSPSSLSASVGDRVTISCRASQDIRNYLNWYQQKPGKAPKLLIFYTSKLHSGVPSRFSGSGSGTDYTLTISSLQPEDIATYYCQQGLTPPLTFGGGTKVEIKR
notes: as for B2
Take B4: the Kd is 0.87 nM, the off-rate (koff) was found to be 5.9e-05 s⁻¹ and the on-rate constant (kon) stood at 68000 M⁻¹ s⁻¹.

B5: DVD2733 (bispecific antibody, IgG1)
VH: B4 VH with T35E, M50G, S61D, S62T, G65S
VL: B4 VL with R24K, A53T, R54L, K93R
notes: as for B2
As to B5, the Kd amounted to 1.1 nM, the dissociation rate constant (koff) was determined as 8.6e-05 s⁻¹ and the on-rate (kon) turned out to be 79000 M⁻¹ s⁻¹.

B6: DVD2684 (bispecific antibody, IgG1)
VH: EVQLVESGGGLVQPGGSLRLSCAASGFTFSNYGVTWVRQAPGKGLEWVSMIWADGSTHYASSVKGRFTISRDNSKNTLYLQMNSLRAEDTAVYYCAREWQHGPVAYWGQGTLVTVSSASTKGPEVTLRESGPGLVKPTQTLTLTCTLYGFSLSTSDMGVDWIRQPPGKGLEWLAHIWWDDVKRYNPALKSRLTISKDTSKNQVVLKLTSVDPVDTATYYCARTVSSGYIYYAMDYWGQGTLVTVSS
VL: DIQMTQSPSSLSASVGDRVTITCRASQLVSSAVAWYQQKPGKAPKLLIYWASARHTGVPSRFSGSGSGTDFTLTISSLQPEDFATYYCQQHYKTPFTFGQGTKLEIKRTVAAPDIQMTQSPSSLSASVGDRVTISCRASQDIRNYLNWYQQKPGKAPKLLIFYTSKLHSGVPSRFSGSGSGTDYTLTISSLQPEDIATYYCQQGLTPPLTFGGGTKVEIKR
notes: as for B2
On to B6, for which the Kd is 1.2 nM, the koff came to 5.9e-05 s⁻¹ and the kon was found to be 48000 M⁻¹ s⁻¹.

B7: DVD2686 (bispecific antibody, IgG1)
VH: B6 VH
VL: DIQMTQSPSSLSASVGDRVTITCRASQLVSSAVAWYQQKPGKAPKLLIYWASARHTGVPSRFSGSGSGTDFTLTISSLQPEDFATYYCQQHYKTPFTFGQGTKLEIKRTVAAPSVFIFPPDIQMTQSPSSLSASVGDRVTISCRASQDIRNYLNWYQQKPGKAPKLLIFYTSKLHSGVPSRFSGSGSGTDYTLTISSLQPEDIATYYCQQGLTPPLTFGGGTKVEIKR
notes: as for B2
On to B7, for which the dissociation constant Kd came out at 0.32 nM, the koff came to 4.4e-05 s⁻¹ and the kon was determined as 140000 M⁻¹ s⁻¹.

B8: DVD2734 (bispecific antibody, IgG1)
VH: B6 VH with T35E, M50G, S61D, S62T, G65S
VL: B6 VL with R24K, A53T, R54L, K93R
notes: as for B2
Consider B8, for which the Kd stood at 0.82 nM, the koff was 4.8e-05 s⁻¹ and the association rate constant (kon) came out at 58000 M⁻¹ s⁻¹.

B9: DVD2736 (bispecific antibody, IgG1)
VH: B6 VH with T35E, M50G, S61D, S62T, G65S
VL: B7 VL with R24K, A53T, R54L, K93R
notes: as for B2
With B9, the dissociation constant (Kd) came out at 0.3 nM, the koff came out at 4.6e-05 s⁻¹ and the kon was determined as 150000 M⁻¹ s⁻¹.

B10: DVD3174 (bispecific antibody, IgG1)
VH: EVQLVQSGAEVKKPGASVKVSCKASGYTFNNYGIIWVRQAPGQGLEWMGWINTYTGKPTYAQKFQGRVTMTTDTSTSTAYMELSSLRSEDTAVYYCARKLFNTVAVTDNAMDYWGQGTTVTVSSASTKGPEVQLVQSGAEVKKPGASVKVSCKASGYTFTSYWMHWVRQAPGQGLEWIGNINPKGGSNIYNEKFQGRVTMTRDTSISTAYMELSRLRSDDTAVYYCARLDYFGDSFDLWGQGTTVTVSS
VL: DIQMTQSPSSLSASVGDRVTITCRASQDIENYLNWYQQKPGKAPKLLIYYTSRLQSGVPSRFSGSGSGTDFTLTISSLQPEDFATYFCQQGNTQPPTFGQGTKLEIKRTVAAPDIQMTQSPSSLSASVGDRVTITCRASQGIRNYLNWYQQKPGKAPKLLIYYASNLEVGVPSRFSGSGSGTDYTLTISSLQPEDFATYYCQQDNRFPYTFGGGTKVEIKR
notes: as for B2
For the molecule B10, the dissociation constant Kd amounted to 0.9 nM, the koff was 7.7e-05 s⁻¹ and the kon was found to be 85000 M⁻¹ s⁻¹.

B11: DVD3176 (bispecific antibody, IgG1)
VH: B10 VH
VL: DIQMTQSPSSLSASVGDRVTITCRASQDIENYLNWYQQKPGKAPKLLIYYTSRLQSGVPSRFSGSGSGTDFTLTISSLQPEDFATYFCQQGNTQPPTFGQGTKLEIKRTVAAPSVFIFPPDIQMTQSPSSLSASVGDRVTITCRASQGIRNYLNWYQQKPGKAPKLLIYYASNLEVGVPSRFSGSGSGTDYTLTISSLQPEDFATYYCQQDNRFPYTFGGGTKVEIKR
notes: as for B2
Turning to B11, the Kd was determined as 0.087 nM, the koff turned out to be 4.8e-05 s⁻¹ and the kon is 550000 M⁻¹ s⁻¹.

B12: DVD3116 (bispecific antibody, IgG1)
VH: EVQLVQSGAEVKKPGASVKVSCKASGYTFNNYGIIWVRQAPGQGLEWMGWINTYTGKPTYAQKFQGRVTMTTDTSTSTAYMELSSLRSEDTAVYYCARKLFNTVAVTDNAMDYWGQGTTVTVSSASTKGPEVQLVQSGAEVKKPGASVKVSCKASGYTFTTYGVSWVRQAPGQGLEWMGEIYPGNYNTYYNEKFRGRVTMTTDTSTSTAYMELRSLRSDDTAVYYCARWRTSYFSDYGYFDYWGQGTTVTVSS
VL: DIQMTQSPSSLSASVGDRVTITCRASQDIENYLNWYQQKPGKAPKLLIYYTSRLQSGVPSRFSGSGSGTDFTLTISSLQPEDFATYFCQQGNTQPPTFGQGTKLEIKRTVAAPSVFIFPPDVVMTQSPLSLPVTLGQPASISCRSSQSLVHSHGNTYLHWYQQRPGQSPRLLIYTVSNRFSGVPDRFSGSGSGTDFTLKISRVEAEDVGVYYCSQSTHVPYTFGGGTKVEIKR
notes: as for B2
As to B12, the equilibrium dissociation constant (Kd) was less than 0.017 nM, the koff was less than 1e-06 s⁻¹ and the kon amounted to 58000 M⁻¹ s⁻¹.

B13: AB398 (antibody, V domains shown)
VH: EVQLVQSGAEVKKPGASVKVSCKASGYTFTTYGVSWVRQAPGQGLEWMGEIYPGNYNTYYNEKFRGRVTMTTDTSTSTAYMELRSLRSDDTAVYYCARWRTSYFSDYGYFDYWGQGTTVTVSS
VL: DVVMTQSPLSLPVTLGQPASISCRSSQSLVHSHGNTYLHWYQQRPGQSPRLLIYTVSNRFSGVPDRFSGSGSGTDFTLKISRVEAEDVGVYYCSQSTHVPYTFGGGTKVEIKR
notes: parent antibody
Consider B13, for which the Kd was determined as 0.045 nM, the koff amounted to 2.8e-05 s⁻¹ and the association rate constant (kon) was found to be 630000 M⁻¹ s⁻¹.

For orientation: Kd means the equilibrium constant for the complex coming apart. By koff is commonly meant a measure of how fast the partners let go of each other. Usually kon stands for the second-order rate constant of association.
